Here are results for 2 sequences from patent publication US20130231261.

In the data set the target is T1, RNase H (UniProt P0A7Y4).
T1 sequence: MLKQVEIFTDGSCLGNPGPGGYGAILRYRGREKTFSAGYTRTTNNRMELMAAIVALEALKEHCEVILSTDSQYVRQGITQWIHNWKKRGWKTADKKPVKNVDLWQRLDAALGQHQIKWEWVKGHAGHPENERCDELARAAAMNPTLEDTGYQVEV
As to the kind of experiment: flow.

Take “AAGCCAGCTGCTTCCATTGGTGGGTCGTTTTTGCTGTCACCAGCAACATTGCCTCGTCTA [EF1a capture oligo without RNA]”: the binding (fluorescence units) (no RNA, equivalent to bead background of 44 units) amounted to 47.

Turning to “AAGCCAGCTGCTTCCATTGGTGGGTCGTTTTTGCTGTCACCAGCAACATTGCCTCGTCTA [EF1a capture oligo:EF1a RNA hybrid]”, the binding (fluorescence units) (bead fluorescence 4x over no-RNA control, released to 45 units on adding MgCl2) worked out at 196.
